Numbering of substitutions follows the chain as printed.
T1: hsGLUT4 P66A (human, UniProt P14672 1-509)
T1 sequence: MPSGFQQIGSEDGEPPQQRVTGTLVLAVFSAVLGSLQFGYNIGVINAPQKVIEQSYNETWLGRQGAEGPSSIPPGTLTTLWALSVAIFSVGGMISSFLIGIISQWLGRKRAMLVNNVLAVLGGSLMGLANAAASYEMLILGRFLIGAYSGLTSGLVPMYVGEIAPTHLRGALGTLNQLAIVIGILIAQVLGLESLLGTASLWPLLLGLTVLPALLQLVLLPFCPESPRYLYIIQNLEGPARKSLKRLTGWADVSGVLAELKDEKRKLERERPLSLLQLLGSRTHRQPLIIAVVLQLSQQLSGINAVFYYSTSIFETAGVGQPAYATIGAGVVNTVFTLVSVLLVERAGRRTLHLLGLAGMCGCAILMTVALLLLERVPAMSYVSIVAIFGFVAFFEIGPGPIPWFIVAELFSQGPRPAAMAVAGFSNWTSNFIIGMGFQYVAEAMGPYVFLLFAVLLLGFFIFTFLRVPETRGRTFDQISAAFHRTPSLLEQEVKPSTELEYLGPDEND

T2: hsGLUT4 P224A (human, UniProt P14672 1-509)
T2 sequence: T1 sequence with A66P, P224A

T3: hsGLUT4 V306A (human, UniProt P14672 1-509)
T3 sequence: T1 sequence with A66P, V306A

T4: hsGLUT4 S310A (human, UniProt P14672 1-509)
T4 sequence: T1 sequence with A66P, S310A

B1: AB111 (Fc fusion)
scFv: ALTQPSSVSANPGETVKITCSGSGSWYGWFQQKSPGSAPVTVIYSNDKRPSDIPSRFSGSKSGSTSTLTITGVQVEDEAVYYCGNWDIFGAGTTLTVLGQSSRSSGGGGSSGGGGSAVTLDESGGGLQTPGGALSLVCKASGFTFSSHGMGWVRQAPGKGLEWVASISTGRYTFYAPAVKGRATISRDNGQSTVRLQLNNLRAEDTATYYCTKCAGLNGCGGGEIDAWGHGTEVIVSS
notes: Bivalent scFv-Fc; also called MAb AB111; not shown: Fc fragment of human IgG1, cloned in frame with the scFv
B2: AB108 (Fc fusion)
scFv: ALTQPSSVSANLGGTVKITCSGSSGSYGWYQQKAPGSAPVTLIYRNDKRPSDIPSRFSGSESGSTGTLTITGVQAEDEAVYFCGGYDSSAGYAAFGAGTTLTVLGQSSRSSGGGGSSGGGGSAVTLDESGGGLQTPGGALSLVCKASGFTFSSHGMGWVRQAPGKGLEWVGSISTGRYTFYAPAVKGRATISRDNGQSTLRLQLNNLRAEDTGTYYCTKCAGLNGCGGGEIDAWGHGTEVIVSS
notes: Bivalent scFv-Fc; also called MAb AB108; not shown: Fc fragment of human IgG1, cloned in frame with the scFv
B3: AB101 (scFv)
scFv: ALTQPSSVSANPGETVKITCSGSSNSYGWYQQKSPGSAPVTVIYYNDKRPSDIPSRFSGSKSDSTHTLTITGVRAEDEAVYFCGSYDSTYVGIFGAGTTLTVLGQSSRSSGGGGSSGGGGSAVTLDESGGGLQTPGGTLSLVCKASGFTFSSNAMGWVRQAPGKGLEWVAGISSDGRYTKYGSAVKGRATISRDNGQSTVRLQLNNLRAEDTGTYFCAKAFGNNYRRIYAGQIDAWGHGTEVIVSS
notes: Chicken-derived clone used as a control; the four lead clones were tested as scFv-human IgG1 Fc; also called MAb AB101

Tests used:
Assay in all cases: flow cytometry, alanine-scan library in HEK-293T
[1] = molecular target: T1, hsGLUT4 P66A
Protocol: (§1) Because of the state-dependence of the isolated MAbs, we next wished to understand the mechanism by which each MAb could recognize GLUT4 in its different conformations. The residues required for binding of each MAb were determined using shotgun mutagenesis comprehensive alanine scanning (Davidson E & Doranz B J (2014) A High-Throughput Shotgun Mutagenesis Approach to Mapping B-cell Antibody Epitopes. Immunology, which is hereby incorporated by reference in its entirety). All residues of hsGLUT4 were individually mutated to alanine, with existing alanines changed to serines. Mutations were obtained for 508 of the 509 residues of GLUT4 (excluding the initiating methionine). The entire mutation library was transfected into human HEK-293T cells in a 384-well array format (one clone per well) and assessed for immunoreactivity using high-throughput flow cytometry.
(§2) HEK-293T cells were transfected by CaPO₄ with plasmids in 6-well culture plates (Falcon) at 750,000 cells/well. At 48 hours post transfection, cells were stained with anti-V5 and anti-GLUT4 MAbs (purified scFv, 2 μg/ml) followed by biotinylated goat anti-mouse or human antibody (1:500) and streptavidin-PerCP (1:500). Fluorescence was detected using an Intellicyt high-throughput flow cytometer (HTFC; Intellicyt, Albuquerque, N. Mex.). For cell permeabilization, cells were treated with saponin at 0.1% in PBS for 20 minutes. To discriminate intact (live) and permeabilized (dead) cells without the use of detergent, propidium iodide (PI) was added to HEK-293T cells at 1 ug/ml just prior to flow cytometry. Where indicated, cytochalasin B (Sigma) was used at a final concentration of 10 uM and phloretin (Sigma) was used at a final concentration of 100 uM, each added in 10% NGS for 30 minutes prior to antibody staining as well as included with the primary antibody.

[2] = molecular target: T2, hsGLUT4 P224A
Protocol: as §1, §2

[3] = molecular target: T3, hsGLUT4 V306A
Protocol: as §1, §2

[4] = molecular target: T4, hsGLUT4 S310A
Protocol: as §1, §2

Molecule | % of binding to wild type GLUT4 [1] [%] | % of binding to wild type GLUT4 [2] [%] | % of binding to wild type GLUT4 [3] [%] | % of binding to wild type GLUT4 [4] [%]
1F8 (antibody) | 78 | 103 | 74 | 93
B1 | 90 | 108 | 171 | 130
B2 | 11 | 56 | 83 | 97
B3 | 91 | 90 | 91 | 101
